Assay [1] addresses human Galectin-3 (Gal3), full-length recombinant (human) (UniProt P17931). Briefly: blocking ELISA, Gal3 coated, TREM2-His. A general note: ELISA stands for enzyme-linked immunosorbent assay.
Assay [2] shares this target. As to the kind of experiment: blocking ELISA, Gal3 coated, VEGFR3-Fc, antibody 20 µg/ml.
Assay [3] has the same target. Briefly: blocking ELISA, Gal3 coated, biotin-APP695.
Assay [4] has the same target. Briefly: blocking ELISA, Gal3 coated, PDGFR alpha-Fc, antibody 20 µg/ml.
Assay [5] shares this target. As to the kind of experiment: blocking ELISA, Gal3 coated, PDGFR beta-Fc, antibody 20 µg/ml.
For assay [6] the target is unchanged. Briefly: blocking ELISA, Gal3 coated, EGFR-Fc, antibody 20 µg/ml.
For assay [7] the target is unchanged. As to the kind of experiment: blocking ELISA, Gal3 coated, biotin-TLR4.
For assay [8] the target is unchanged. Briefly: blocking ELISA, Gal3 coated, biotin-Tau aggregates.
Assay [9] concerns the target cynomolgus Gal3 (cynomolgus). As to the kind of experiment: not stated (FIG. 50).
The target of assay [10] is human Galectin-3 (Gal3), full-length recombinant (human) (UniProt P17931). Briefly: blocking ELISA, Gal3 coated, biotin-Abeta42 peptide.
Chain of human Galectin-3 (Gal3), full-length recombinant (human) (P17931 2-250 limits assumed): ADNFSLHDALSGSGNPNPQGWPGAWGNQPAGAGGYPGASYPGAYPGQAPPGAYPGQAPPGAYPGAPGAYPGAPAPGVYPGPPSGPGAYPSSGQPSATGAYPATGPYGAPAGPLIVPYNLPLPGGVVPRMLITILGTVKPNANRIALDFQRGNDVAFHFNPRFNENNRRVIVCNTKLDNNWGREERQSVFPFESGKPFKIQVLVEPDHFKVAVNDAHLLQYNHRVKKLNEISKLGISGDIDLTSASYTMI
For assay [11] the target is unchanged. As to the kind of experiment: blocking ELISA, Gal3 coated, biotin-α-synuclein aggregates.
Assay [12] shares this target. As to the kind of experiment: blocking ELISA, Gal3 coated, biotin-Abeta42 oligomer.

This note sets out measurements from patent US20250145722A1, “ANTI-GAL3 ANTIBODIES AND METHODS OF USE” (TrueBinding, Inc., priority 2020, published 2025).

B1: 7D8.2D8 (antibody, mouse IgG2a, V domains shown)
VH: EVQLVESGGGLVKPGGSLKLSCAASGFTFSSYAMSWVRQTPEKRLEWVATISDGGIYTYYPDNVKGRFTISRDNAKNNLFLQMSHLKSEDTAMYYCVRDGGYWGQGTTLTVSS
VL: DVLMTQTPLSLPVSLGDQASISCRSSQSIVHSNGNTYLEWYLQKPGQSPKLLIYKVSNRFSGVPDRFSGSGSGTDFTLKISRVEAEDLGVYYCFQGSHVPLTFGAGTKLELKR
Take B1: the % blocking of Gal3-TREM2 binding in assay [1] was above 90%. In [2], the % blocking of Gal3-VEGFR3 binding was below 30%. For the same molecule, the % blocking of Gal3-APP695 binding in assay [3] was above 90%. Besides, in [4], the % blocking of Gal3-PDGFR alpha binding is below 30%. For the same molecule, the % blocking of Gal3-PDGFR beta binding in [5] was below 30%. For the same molecule, the % blocking of Gal3-EGFR binding in [6] was below 30%. The % blocking of Gal3-TLR4 binding in assay [7] was above 90%.

B2: 15F10.2D6 (antibody, mouse IgG2a, V domains shown)
VH: EVQLVESGGGLVKPGGSLKLSCAASGFAFSSYAMSWVRQTPEKRLEWVATISDGGVYTYYTDHVKGRFTISRDNAEDNLYLQMSHLKSEDTAMYYCVRDGGYWGQGTTLTVSS
VL: DVLMTQTPLSLPVSLGDQASISCRSSQSIVHNNGNTYLEWYLQKPGQSPKLLIYKVSNRFSGVPDRFSGSGSGTDFTLKISRVEAEDLGVYYCFQGSHVPLTFGGGTKLELKR
Consider B2, for which, in [1], the % blocking of Gal3-TREM2 binding was above 90%. Further, in assay [3], the % blocking of Gal3-APP695 binding was above 90%. Also, the % blocking of Gal3-Tau aggregates binding in assay [8] is below 50%. Further, the % blocking of Gal3-TLR4 binding in assay [7] is above 90%.

B3: TB006 (antibody, V domains shown)
VH: QVQLVQSGAEVKKPGASVKVSCKASGYSFTNYYMHWVRQAPGQRLEWMGWIYPGSGNTNYNEKFQGRVTITADTSASTAYMELSSLRSEDTAVYYCSTAPGGFDVWGQGTTVTVSS
VL: DIVMTQTPLSLSVTPGQPASISCKSSKSLLHSDGITYLYWYLQKPGQSPQLLIYRMSNLASGVPDRFSGSGSGTDFTLKISRVEAEDVGVYYCAQMLEFPLTFGQGTKLEIKR
For B3, the equilibrium dissociation constant (Kd) (usually the concentration at which binding is half-saturated) in assay [9] came out at 5.1 nM.

B4: TB001 (antibody, IgG4, V domains shown)
VH: QVQLVQSGSELKKPGASVKVSCKASGYTFTNYGMNWVRQAPGQGLKWMGWINTNTGEPTYVEEFTGRFVFSLETSVSTAYLQISSLKAEDTAVYFCAPYDNFFAYWGQGTTVTVSS
VL: DIVLTQSPLSLPVTPGEPASISCRSSKSLLYKDGKTYLNWFLQKPGQSPQLLIYLMSTHASGVPDRFSGSGSGTDFTLKISRVEAEDVGVYYCQQLVDYPLTFGGGTKLEIKR
In the case of B4, the equilibrium dissociation constant (Kd) in [9] was found to be 8.9 nM.

B5: 12G5.D7 (antibody, from a related filing, V domains shown)
VH: QVQLKQSGAELVRPGASVKLSCKASGYTFTDYYINWVKQRPGQGLEWIARIYPGTGNTDYNEKFKGRATLTAEKSSSTAYMQLSSLTSEDSAVYFCARFAYYYGSGGYFDYWGHGTTLTVSS
VL: DILMTQSPSSMSVSLGDTVSITCHASQGINSNMGWLQQKPGKSFKGLIYHATNLEDGVPSRFSGSGSGADYSLTISSLESEDFADYYCVQYAQFPPTFGSGTKLEIK
B5: the % blocking of Gal3-Abeta42 peptide binding in assay [10] is below 46%. Further, the % blocking of Gal3-APP695 binding in assay [3] was above 86%. The % blocking of Gal3-α-synuclein aggregates binding in assay [11] is below 50%. Further, the % blocking of Gal3-Abeta42 oligomer binding in assay [12] was below 26%. In addition, in assay [8], the % blocking of Gal3-Tau aggregates binding is below 50%.
